T1: SurA (E. coli), P0ABZ6
T1 chain: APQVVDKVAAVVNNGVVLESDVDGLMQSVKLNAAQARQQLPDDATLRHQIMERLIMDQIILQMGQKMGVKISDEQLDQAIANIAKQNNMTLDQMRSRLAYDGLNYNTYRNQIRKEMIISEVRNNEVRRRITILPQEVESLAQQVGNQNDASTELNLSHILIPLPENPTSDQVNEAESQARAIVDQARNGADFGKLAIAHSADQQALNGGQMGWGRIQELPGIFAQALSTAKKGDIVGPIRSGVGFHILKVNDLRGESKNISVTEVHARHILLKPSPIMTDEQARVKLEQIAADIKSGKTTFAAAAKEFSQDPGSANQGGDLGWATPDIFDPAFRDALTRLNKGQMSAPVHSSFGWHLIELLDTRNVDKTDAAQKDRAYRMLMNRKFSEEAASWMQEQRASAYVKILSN


What was measured:
SurA (E. coli), P0ABZ6 = target: T1, SurA (E. coli), P0ABZ6; test: native gel or EMSA; NativePAGE Bis-Tris 3–12%; HTL 3.8 µM with SurA or SurA:OmpA at 1:3 molar ratio, or each alone, in TS130G (20 mM Tris-HCl pH ≈ 8, 130 mM NaCl, 10% glycerol) + 0.01% DDM-CL, 30 min at 30°C; bands excised and analysed by SDS–PAGE with silver staining; conditions: remark: other sources report otherwise
[1] = target: the molecule itself; test: as above

Row | stoichiometry N (SurA (E. coli), P0ABZ6) | Binder | stoichiometry N [1]
1 | 2 | SurA, P0ABZ6 21-428 (natural protein) APQVVDKVAAVVNNGVVLESDVDGLMQSVKLNAAQARQQLPDDATLRHQIMERLIMDQIILQMGQKMGVKISDEQLDQAIANIAKQNNMTLDQMRSRLAYDGLNYNTYRNQIRKEMIISEVRNNEVRRRITILPQEVESLAQQVGNQNDASTELNLSHILIPLPENPTSDQVNEAESQARAIVDQARNGADFGKLAIAHSADQQALNGGQMGWGRIQELPGIFAQALSTAKKGDIVGPIRSGVGFHILKVNDLRGESKNISVTEVHARHILLKPSPIMTDEQARVKLEQIAADIKSGKTTFAAAAKEFSQDPGSANQGGDLGWATPDIFDPAFRDALTRLNKGQMSAPVHSSFGWHLIELLDTRNVDKTDAAQKDRAYRMLMNRKFSEEAASWMQEQRASAYVKILSN | 
2 |  | SurA–OmpA complex (complex, SurA, periplasmic chaperone, E. coli; as the chain of m2; OmpA, outer membrane protein, from pET11a-ompA; also called substrate-engaged SurA; occupied chaperone; source: E. coli BL21(DE3), made separately; OmpA pellet in 6 M urea mixed with SurA supernatant, urea dialysed away, purified (HisTrap, HiTrap Q; S200 SEC for the size exclusion experiments)) chain 1: APQVVDKVAAVVNNGVVLESDVDGLMQSVKLNAAQARQQLPDDATLRHQIMERLIMDQIILQMGQKMGVKISDEQLDQAIANIAKQNNMTLDQMRSRLAYDGLNYNTYRNQIRKEMIISEVRNNEVRRRITILPQEVESLAQQVGNQNDASTELNLSHILIPLPENPTSDQVNEAESQARAIVDQARNGADFGKLAIAHSADQQALNGGQMGWGRIQELPGIFAQALSTAKKGDIVGPIRSGVGFHILKVNDLRGESKNISVTEVHARHILLKPSPIMTDEQARVKLEQIAADIKSGKTTFAAAAKEFSQDPGSANQGGDLGWATPDIFDPAFRDALTRLNKGQMSAPVHSSFGWHLIELLDTRNVDKTDAAQKDRAYRMLMNRKFSEEAASWMQEQRASAYVKILSN chain 2: APKDNTWYTGAKLGWSQYHDTGFINNNGPTHENQLGAGAFGGYQVNPYVGFEMGYDWLGRMPYKGSVENGAYKAQGVQLTAKLGYPITDDLDIYTRLGGMVWRADTKSNVYGKNHDTGVSPVFAGGVEYAITPEIATRLEYQWTNNIGDAHTIGTRPDNGMLSLGVSYRFGQGEAAPVVAPAPAPAPEVQTKHFTLKSDVLFNFNKATLKPEGQAALDQLYSQLSNLDPKDGSVVVLGYTDRIGSDAYNQGLSERRAQSVVDYLISKGIPADKISARGMGESNPVTGNTCDNVKQRAALIDCLAPDRRVEIEVKGIKDVVTQPQA | 2
